From the nanobody polyreactivity screen of Harvey et al. (2022)

assay: yeast display, Sf9 membrane polyspecificity reagent, FACS + sequencing; frameworks hold sequencing errors
How it was run: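 Using colony PCR, genes from sorted yeast display clones were amplified, then sequenced on MiSeq at 2 × 250 and filtered by CDR length. The clones had been stained with 10% biotinylated, detergent-solubilized Sf9 membrane reagent for 1 hour at 4 °C and sorted by FACS into low and high (top ~1%) gates on anti-HA and streptavidin fluorescence. Polyreactivity labels come from the gate of origin.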

| Sequence | polyreactivity (PSR sort gate) |
| --- | --- |
| QVQLEESGGGLVQAGGSLRLSCAASGITFNSYAMGSYRQAPGKERELVAAISGSGSSTYYADSVKGRFTISRDNAKNTVYLQMTSLKPEDTAVYYCAATGYSSWTFYTHEYWGQGTQVTVSS | low polyreactivity |
| QVQLVESGGGLVQAGGSLRLSCAASGFIFYHYAMGRYRQAPGKERELVAAISWNGGRTYYADSVKGRFTISRDNAKNTVYLQMNSLKPEDTAVYYCAAYWTRVERVYWGQGTQVTVSS | high polyreactivity |
| QVQLVESGGGLVQAGGTLRLSCAASGRIFSDYAMGWYRQAPGKEREFVAAISSSGGRTYYADSVKGRFTISRDNAKNTVYLQMNSLKPEDTAVYYCNRYNGYYNTGRYGYLGQGTQVTVSS | high polyreactivity |
| QVQLVESGGGLVQAGGSLRLSCAASGIIFKLYAMGWYRQAPGKEREFVATITKTGGRTYYADSVKGRFTISRDNAKNTVYLQMNSLKPEDTAVYYCAARRVNGKMYYWGQGTQVTVSS | high polyreactivity |
| QVQLVESGGGLVQAGGSLRLSCAASGLTLIRYAMGWYRQAPGKERELVAAISWSGGSTYYADSVKGRFTISRDNAKNTVYLQMNSLKPEDTAVYYCNTVYRYPDEYDYWGQGTQVTVSS | high polyreactivity |
| QVHLVESGGGLVQAGGSLRLSSSASGIIFGRNTMGWYRQAPGKEREMVAAITSSGITYYADSVKGRFTISRDNAKNTVYFQMNSLKPEDTAVYYCYSDWTYADPNEYGYWGQGTQVTVSS | low polyreactivity |
| QFQLVESGGGLVQAGGSLRLSCAASGSIITPYAMGWYRPAPGKERELVAAISGRGGSTYYADSVKGRFTISRDNAKNTVYLQMNSLKPEDTAVYYCAARQYFRWYGWSMDYWGQGTQVTVSS | high polyreactivity |
| QVQLVESGGGLVQAGGSLRLSCAASGSTFPYYARGWYRQAPGKERELVAAITSGGSTNYADSVKGRFTISRDNAKNTVYLQMNSLKPEDTAVYYCAARLRYTTVIYYYWGQGTQVTVSS | high polyreactivity |
| QVQLVESGGGLVQAGGSLRLSCAASGGTFSKNAMGWYRQAPGKEREFVAAISSTGGDTTYYADSVKGRFTISRDNAKNTVYLQMNSLKPEDTAVYYCNADYIFWPWYDYWGQGTQVTVSS | low polyreactivity |
| QVQLVESGGGLVQAGGSLRLSCAASGSIFSWNAMGWYRQAPGKERELVAAITSGGSTYYADSVKGRFTISRDNAKNTVYLQMNSLKPEDTAVYYCGWTYHYHRESWGQGTQVTVSS | low polyreactivity |
| QVQLVESGGGLVQAGGSLRLSCAASGFIFNVYDMGWYRQAPGKERELVAAISTSGSNTYYADSVKVRFTISRDNAKNTVYLQMNSLKPEDTAVYYCNAVRVRVRWHYYAVYYWGQGTQVTVSS | high polyreactivity |
| QVQLVESGGGLVQAGGSLRLSCAASGYTFGYNARGWYRQAPGKERELVANITWRGGSTNYADSVKGRFTISRDNAKNTVYLQMNSLKPEDTAVYYCAADRPWYYGRYYYWGQGTQVTVSS | high polyreactivity |
| QVQLVESGGGLVQAGGSLRLSSAASGLTFYRNAMGWYRQAPGKERELVAGISSSGASTYYADSVKGRFTISRDNAKNTVYLQMNSLKPEDTAVYYCAVRFYGRYLRYNYWGQGTQVTVSS | high polyreactivity |
| KVQLVESGGGLVQAGGSLRLSCAASGNTFYHYAMGWYRQAPGKERELVAGIRYNGGSTYYADSVKGRFTISRDNAKNTVYLHMKSLKPEDTAVYYCATKGYTGYAYRYGYWGQGTQVTVSS | high polyreactivity |
| QVQLVESGGGLVQAGGSLRLSCAASGRIFWDYAMGWYRQAPGKERELVAVITFSGDSTYYADSVKGRFTISRDNAKNTVYLQMNSLKPEDTAVYYCAAARAIRQFWYVATFEYWGQGTQVTVSS | low polyreactivity |
| QVQLVESGGGLVQAGGSLRLSCAASGSIFIVYAMGWYRQAPGKERELVATISWSGGSTSYADSVKGRFTNSRDNAKNTVYLQMNSLKPEDTAFYYCNTLVRITEYDSWGQGTQVTVSS | low polyreactivity |
